Tests used:
[1] = molecular target: T1, PmrAC (C-terminal effector/DNA-binding domain of PmrA) (Klebsiella pneumoniae, UniProt W9BNR5 121-223); test: NMR PRE; Mn2+ or Ca2+; 1:1; label does not affect interaction; 20 mM sodium phosphate, 30 mM NaCl, pH 6.0; FP with 12 nM 6-FAM DNA (temperature not stated); ITC plus 0.5 mM EDTA at 25 C; NMR at 298 K; conditions: protein: recombinant; tags: N-terminal extra Met; chain copies: 2; label: EDTA spin label (Mn2+/Ca2+); blunt
T1 sequence: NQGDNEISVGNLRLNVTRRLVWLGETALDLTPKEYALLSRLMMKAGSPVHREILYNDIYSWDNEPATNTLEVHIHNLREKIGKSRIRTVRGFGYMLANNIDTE

[2] = molecular target: T1, PmrAC (C-terminal effector/DNA-binding …); test: fluorescence polarization; two-site fit, first site (half1); 20 mM sodium phosphate, 30 mM NaCl, pH 6.0; FP with 12 nM 6-FAM DNA (temperature not stated); ITC plus 0.5 mM EDTA at 25 C; NMR at 298 K; conditions: protein: recombinant; tags: N-terminal extra Met; chain copies: 2; label: 5' 6-FAM (fluorescence polarization); none (NMR); blunt
[3] = molecular target: T1, PmrAC (C-terminal effector/DNA-binding …); test: NMR PRE; Mn2+ or Ca2+; 2:1 protein:DNA; label does not affect interaction; 20 mM sodium phosphate, 30 mM NaCl, pH 6.0; FP with 12 nM 6-FAM DNA (temperature not stated); ITC plus 0.5 mM EDTA at 25 C; NMR at 298 K; conditions: protein: recombinant; tags: N-terminal extra Met; chain copies: 2; label: EDTA spin label (Mn2+/Ca2+); blunt
[4] = molecular target: T1, PmrAC (C-terminal effector/DNA-binding …); test: ITC; 2:1 protein:DNA; one-site fit; 0.5 mM EDTA; 20 mM sodium phosphate, 30 mM NaCl, pH 6.0; FP with 12 nM 6-FAM DNA (temperature not stated); ITC plus 0.5 mM EDTA at 25 C; NMR at 298 K; conditions: protein: recombinant; tags: N-terminal extra Met; chain copies: 2; blunt
[5] = molecular target: T1, PmrAC (C-terminal effector/DNA-binding …); test: fluorescence polarization; 20 mM sodium phosphate, 30 mM NaCl, pH 6.0; FP with 12 nM 6-FAM DNA (temperature not stated); ITC plus 0.5 mM EDTA at 25 C; NMR at 298 K; conditions: protein: recombinant; tags: N-terminal extra Met; chain copies: 2; label: 5' 6-FAM (fluorescence polarization); none (NMR); blunt
[6] = molecular target: T1, PmrAC (C-terminal effector/DNA-binding …); test: NMR titration; range over residues; 20 mM sodium phosphate, 30 mM NaCl, pH 6.0; FP with 12 nM 6-FAM DNA (temperature not stated); ITC plus 0.5 mM EDTA at 25 C; NMR at 298 K; conditions: protein: recombinant; tags: N-terminal extra Met; chain copies: 2; blunt
[7] = molecular target: T1, PmrAC (C-terminal effector/DNA-binding …); test: ITC; 1:1 stoichiometry; 0.5 mM EDTA; 20 mM sodium phosphate, 30 mM NaCl, pH 6.0; FP with 12 nM 6-FAM DNA (temperature not stated); ITC plus 0.5 mM EDTA at 25 C; NMR at 298 K; conditions: protein: recombinant; tags: N-terminal extra Met; chain copies: 2; blunt

B1: box1 dT-EDTA at THY4 (dsDNA)
DNA 1: ATTTCTTAATATTATCCTAAGCAAG
DNA 2: CTTGCTTAGGATAATATTAAGAAAT
modifications: dT-EDTA at T4 of strand 1
- binding result [1]: binds

B2: box1 (dsDNA)
DNA 1: ATTTCTTAATATTATCCTAAGCAAG
DNA 2: CTTGCTTAGGATAATATTAAGAAAT
- Kd [2]: 0.19 ± 0.01 µM

B3: box1 dT-EDTA at THY28 (dsDNA)
DNA 1: ATTTCTTAATATTATCCTAAGCAAG
DNA 2: CTTGCTTAGGATAATATTAAGAAAT
modifications: dT-EDTA at THY28 (strand 2, position 3)
- binding result [3]: binds

B4: box2 (dsDNA)
DNA 1: TCATTTTAATTTCGTTTAAGTCCG
DNA 2: CGGACTTAAACGAAATTAAAATGA
- Kd [4]: 0.97 ± 0.13 µM

B5: box1b (dsDNA)
DNA 1: ATTATCCTAAGCAAGG
DNA 2: CCTTGCTTAGGATAAT
- Kd [5]: 9.3 ± 1.5 µM

B6: box2b (dsDNA)
DNA 1: CGTTTAAGTCCG
DNA 2: CGGACTTAAACG
- Kd [6]: 31.9 µM
- Kd [7]: 36.5 ± 9.4 µM

B7: box1a (dsDNA)
DNA 1: AATTTCTTAATATTAT
DNA 2: ATAATATTAAGAAATT
- Kd [5]: 0.13 ± 0.01 µM

— paper PMC3973317, “Solution structure and tandem DNA recognition of the C-terminal effector domain of PmrA from Klebsiella pneumoniae”
